Source: patent publication US20220119534A1 (DRAGONFLY THERAPEUTICS, published 2022)

Assays:
Human CLEC12A-His = target: T1, Human CLEC12A-His (human, UniProt Q5QGZ9 65-265); test: SPR Biacore 8K 37 C; TriNKET captured on anti-hFc chip, hCLEC12A-His as analyte; 1:1 fit; control sample, n=2
T1 construct: Recombinant soluble protein made in house (Dragonfly Tx); The hCLEC12A spot of the HuProt array is written under this molecule as well; also called hCLEC12A-His; hCLEC12A; not shown: His tag
T1 sequence: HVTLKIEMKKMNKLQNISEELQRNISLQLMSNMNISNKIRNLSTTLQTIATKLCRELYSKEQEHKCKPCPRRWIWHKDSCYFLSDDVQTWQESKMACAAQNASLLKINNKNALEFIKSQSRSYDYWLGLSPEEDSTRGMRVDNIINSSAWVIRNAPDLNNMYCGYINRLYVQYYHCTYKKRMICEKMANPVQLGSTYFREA

mFc-hNKG2D [1] = target: T2, mFc-hNKG2D (human, UniProt P26718 73-216); test: SPR Biacore 8K 37 C; mFc-hNKG2D captured on anti-mFc chip, TriNKET as analyte; 1:1 kinetic fit; control sample
T2 construct: extracellular domain; Made in house (Dragonfly Tx); the order of tag and ECD follows the name mFc-hNKG2D; also called mFc-tagged human NKG2D; not shown: mouse Fc tag
T2 sequence (looked up): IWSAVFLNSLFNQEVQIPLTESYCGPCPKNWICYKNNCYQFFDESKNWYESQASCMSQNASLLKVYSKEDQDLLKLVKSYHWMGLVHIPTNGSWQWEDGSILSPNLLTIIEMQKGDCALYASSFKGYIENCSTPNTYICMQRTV

mFc-hNKG2D [2] = target: T2, mFc-hNKG2D; test: SPR Biacore 8K 37 C; mFc-hNKG2D captured on anti-mFc chip, TriNKET as analyte; steady state fit; after 4 wks 40 C in CST pH 7.0, n=3
Protocol: (§1) Association was monitored for 60 seconds and dissociation was monitored for 60 seconds. Surfaces were regenerated between cycles with three pulses of 10 mM glycine-HCl, pH 1.7 injected for 20 seconds at 100 μL/min. HBS-EP+ (1×) buffer was used throughout the experiment. Data were analyzed using Biacore 8K Insight evaluation software (GE Healthcare).

[3] = target: T3, Human CD16a V158 (FcγRIIIa V158) (human, UniProt P08637 17-208, biotinylated (site not stated)); test: SPR; biotinylated CD16a V158 captured on SA chip, TriNKET as analyte; 1:1 kinetic fit; control, n=3
T3 construct: V158 is the allele name in mature numbering; also called hCD16aV; hCD16a V158

mFc-hNKG2D [4] = target: T2, mFc-hNKG2D; test: SPR Biacore 8K 37 C; mFc-hNKG2D captured on anti-mFc chip, TriNKET as analyte; 1:1 kinetic fit; control sample, n=2
Protocol: as §1

T3 sequence (P08637 17-208 F176V limits assumed): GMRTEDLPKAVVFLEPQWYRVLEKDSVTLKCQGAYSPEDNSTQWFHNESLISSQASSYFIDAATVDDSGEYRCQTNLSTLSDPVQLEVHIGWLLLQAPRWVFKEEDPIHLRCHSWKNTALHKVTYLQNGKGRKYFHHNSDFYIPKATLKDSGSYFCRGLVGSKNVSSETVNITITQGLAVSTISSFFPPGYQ

Kd (Human CLEC12A-His): 1.11 nM
koff (Human CLEC12A-His): 0.000873 s⁻¹
kon (Human CLEC12A-His): 791000 M⁻¹ s⁻¹
Kd (mFc-hNKG2D [1]): 760 nM
koff (mFc-hNKG2D [1]): 0.129 s⁻¹
kon (mFc-hNKG2D [1]): 170000 M⁻¹ s⁻¹
Kd (mFc-hNKG2D [2]): 711 nM
Kd [3]: 212 nM
koff [3]: 0.024 s⁻¹
kon [3]: 113000 M⁻¹ s⁻¹
Kd (mFc-hNKG2D [4]): 790 nM
koff (mFc-hNKG2D [4]): 0.153 s⁻¹
kon (mFc-hNKG2D [4]): 193000 M⁻¹ s⁻¹
B1: F3'-1602 TriNKET (bispecific antibody, human IgG1, kappa)
chain: QLQLQESGPGLVKPSETLSLTCTVSGFSLTNYGLHWIRQPPGKCLEWIGVIWSGGKTDYNPSLKSRVTISKDTSKNQFSLKLSSVQAADTAVYYCAKYDYDDSLDYWGQGTLVTVSSGGGGSGGGGSGGGGSGGGGSDIQMTQSPSSLSASVGDRVTITCHASQNINFWLSWYQQKPGKAPKLLIYEASNLHTGVPSRFSGSGSGTRFTLTISSLQPEDIATYYCQQSHSYPLTFGCGTKLEIKGSDKTHTCPPCPAPELLGGPSVFLFPPKPKDTLMISRTPEVTCVVVDVSHEDPEVKFNWYVDGVEVHNAKTKPREEQYNSTYRVVSVLTVLHQDWLNGKEYKCKVSNKALPAPIEKTISKAKGQPREPRVYTLPPCRDELTKNQVSLTCLVKGFYPSDIAVEWESNGQPENNYKTTPPVLVSDGSFTLYSKLTVDKSRWQQGNVFSCSVMHEALHNHYTQKSLSLSPG
heavy: EVQLVESGGGLVKPGGSLRLSCAASGFTFSSYSMNWVRQAPGKGLEWVSSISSSSSYIYYADSVKGRFTISRDNAKNSLYLQMNSLRAEDTAVYYCARGAPIGAAAGWFDPWGQGTLVTVSSASTKGPSVFPLAPSSKSTSGGTAALGCLVKDYFPEPVTVSWNSGALTSGVHTFPAVLQSSGLYSLSSVVTVPSSSLGTQTYICNVNHKPSNTKVDKKVEPKSCDKTHTCPPCPAPELLGGPSVFLFPPKPKDTLMISRTPEVTCVVVDVSHEDPEVKFNWYVDGVEVHNAKTKPREEQYNSTYRVVSVLTVLHQDWLNGKEYKCKVSNKALPAPIEKTISKAKGQPREPQVCTLPPSRDELTENQVSLTCLVKGFYPSDIAVEWESNGQPENNYKTTPPVLDSDGSFFLYSWLTVDKSRWQQGNVFSCSVMHEALHNHYTQKSLSLSPG
light: DIQMTQSPSSVSASVGDRVTITCRASQGISSWLAWYQQKPGKAPKLLIYAASSLQSGVPSRFSGSGSGTDFTLTISSLQPEDFATYYCQQGVSFPRTFGGGTKVEIKRTVAAPSVFIFPPSDEQLKSGTASVVCLLNNFYPREAKVQWKVDNALQSGNSQESVTEQDSKDSTYSLSSTLTLSKADYEKHKVYACEVTHQGLSSPVTKSFNRGEC
notes: Trispecific F3' format: CLEC12A scFv-Fc paired with NKG2D Fab-Fc; Stressed and control samples of the stability studies are the same molecule; also called AB0237
